Consider one molecule from publication doi:10.1101/2024.04.30.591897 (bioRxiv, 2024).

The assay concerns the target LC3B (1-120, G120C) (human, UniProt Q9GZQ8 1-120, G120C). Nature of the assay: pull-down.

B1: GST-ALG2^ΔN23 (domain or fragment)
chain: DQSFLWNVFQRVDKDRSGVISDTELQQALSNGTWTPFNPVTVRSIISMFDRENKAGVNFSEFTGVWKYITDWQNVFRTYDRDNSGMIDKNELKQALSGFGYRLSDQFHDILIRKFDRQGRGQIAFDDFIQGCIVLQRLTDIFRRYDTDQDGWIQVSYEQYLSMVFSIV
Take B1: the binding result is reported as “binds”.
